Legend:
[1] = target: GST-C2B fusion protein of synaptotagmin I (wild type) (Drosophila); test: pull-down
[2] = target: GST-C2AB fusion protein of synaptotagmin I (wild type) (Drosophila); test: pull-down
[3] = target: GST-C2AB fusion protein of synaptotagmin I with the syt^B-IE mutation (I420E) (Drosophila); test: pull-down
[4] = target: GST-C2B fusion protein of synaptotagmin I with the syt^B-IE mutation (I420E) (Drosophila); test: pull-down
full length t-SNAREs = test: co-flotation

Row | increase of binding by Ca2+ over EGTA [1] | fold increase of binding by Ca2+ over EGTA [2] | increase of binding by Ca2+ over EGTA [2] | fold increase of binding by Ca2+ over EGTA [3] | increase of binding by Ca2+ over EGTA [3] | increase of binding by Ca2+ over EGTA [4] | percent of wild type binding (% of wild type levels) (full length t-SNAREs) | Substance
1 | 0.116 units | 2.4 fold | 0.2 units | 4.5 fold | 0.112 units | 0.105 units | – | full length t-SNAREs (complex)
2 | – | – | – | – | – | – | 70 | synaptotagmin C2AB domain with the syt^B-IE mutation (I420E), as used in the co-flotation assay (domain or fragment)

From paper PMC3092483
